The results in this text go back to publication PMC7338394.

B1: truncated Myc-tagged DIX domain of DVL2 [human] / Dishevelled-2 (DVL2), full-length, Flag-tagged [human] (parent)
chain 1: VGETKVIYHLDEEETPYLVKIPVPAERITLGDFKSVLQRPAGAKYFFKSMDQDFGVVKEEISDDNARLPCFNGRVVSWLVSSD
chain 2: MAGSSTGGGGVGETKVIYHLDEEETPYLVKIPVPAERITLGDFKSVLQRPAGAKYFFKSMDQDFGVVKEEISDDNARLPCFNGRVVSWLVSSDNPQPEMAPPVHEPRAELAPPAPPLPPLPPERTSGIGDSRPPSFHPNVSSSHENLEPETETESVVSLRRERPRRRDSSEHGAGGHRTGGPSRLERHLAGYESSSTLMTSELESTSLGDSDEEDTMSRFSSSTEQSSASRLLKRHRRRRKQRPPRLERTSSFSSVTDSTMSLNIITVTLNMEKYNFLGISIVGQSNERGDGGIYIGSIMKGGAVAADGRIEPGDMLLQVNDMNFENMSNDDAVRVLRDIVHKPGPIVLTVAKCWDPSPQAYFTLPRNEPIQPIDPAAWVSHSAALTGTFPAYPGSSSMSTITSGSSLPDGCEGRGLSVHTDMASVTKAMAAPESGLEVRDRMWLKITIPNAFLGSDVVDWLYHHVEGFPERREARKYASGLLKAGLIRHTVNKITFSEQCYYVFGDLSGGCESYLVNLSLNDNDGSSGASDQDTLAPLPGATPWPLLPTFSYQYPAPHPYSPQPPPYHELSSYTYGGGSASSQHSEGSRSSGSTRSDGGAGRTGRPEERAPESKSGSGSESEPSSRGGSLRRGGEASGTSDGGPPPSRGSTGGAPNLRAHPGLHPYGPPPGMALPYNPMMVVMMPPPPPPVPPAVQPPGAPPVRDLGSVPPELTASRQSFHMAMGNPSEFFVDVM

The variants in this assay derive from B1. Nature of the assay: Co-IP (IP: Flag, immunoblot for Myc-DIX) with densitometry. The following applies: with Dishevelled-2 (DVL2), HEK293T cells, co-immunoprecipitated DIX levels normalized to immunoprecipitated DVL2 levels, three independent experiments, parent: 4.7, read off a plot.
On to chain 1 K58R, for which the response is 1.1.
